# Assay results published in patent publication US20210061914A1 (published 2021).
# Residue numbers refer to the chain shown, from its start.
# B1: scFv G5-P4B02 (scFv, V domains shown)
# VH: QVQLVQSGAEVKKPGASVKVSCKASGYTFTGYYMHWVRQAPGQGLEWMGWMNPNIGNTGYAQKFQGRVTMTRDTSTSTVYMELSSLRSEDTAVYYCARGIADSGSYYGNGRDYYYGMDVWGQGTTVTVSS
# VL: DIVMTQSPDSLAVSLGERATINCKTSQSVLYRPNNENYLAWYQQKPGQPPKLLIYQASIREPGVPDRFSGSGSGTDFTLTISSLQAEDVAVYYCQQYYTTPYTFGQGTKLEIK
# notes: scFv
# B2: Fab clone R3G10-P4E07 (Fab, V domains shown)
# VH: QVQLVQSGAEVKKPGSSVKVSCKASGYTFTGYYMHWVRQAPGQGLEWMGRISPSDGSTTYAPKFQGRVTITADESTSTAYMELSSLRSEDTAVYYCARDMGDAFDIWGQGTTVTVSS
# VL: not shown
# notes: Fab made in HEK293
# B3: Fab clone R3G8-P2E04 (Fab, V domains shown)
# VH: QVQLVQSGAEVKKPGSSVKVSCKASGGTFSSYGVSWVRQAPGQGLEWMGWISPYSGNTDYAQKFQGRVTITADESTSTAYMELSSLRSEDTAVYYCARGLYYMDVWGKGTTVTVSS
# VL: DIQMTQSPSSLSASVGDRVTITCRASQSISSWLAWYQQKPGKAPKLLIYDASNLETGVPSRFSGSGSGTDFTLTISSLQPEDFATYYCQQSYSTPLTFGGGTKLEIK
# notes: Fab made in HEK293
# B4: Fab clone R3G8-P2C10 (Fab, V domains shown)
# VH: QVQLVQSGAEVKKPGASVKVSCKASGYTFTSYYMHWVRQAPGQGLEWMGWINPYSGGTNYAQKFQGRVTMTRDTSTSTVYMELSSLRSEDTAVYYCAKGGIYYGSGSYPSWGQGTLVTVSS
# VL: DIQMTQSPSSLSASVGDRVTITCRASQDVSTWLAWYQQKPGKAPKLLIYAASSLQSGVPSRFSGSGSGTDFTLTISSLQPEDFATYYCQQSHSTPQTFGQGTKVEIK
# notes: Fab made in HEK293
# B5: scFv G5-P3G08 (scFv, V domains shown)
# VH: QVQLVQSGAEVKKPGASVKVSCKASGYIFRNYPMHWVRQAPGQGLEWMGWINPDSGGTKYAQKFQGRVTMTRDTSTSTVYMELSSLRSEDTAVYYCARDNGVGVDYWGQGTLVTVSS
# VL: B4 VL with D28G, V29I, T31N, W32Y, H92Y, S93I, Q96Y, V104L
# notes: scFv
# B6: Fab clone G8-P1C11 (Fab, V domains shown)
# VH: QVQLVQSGAEVKKPGASVKVSCKASGGTLSSYPINWVRQAPGQGLEWMGWISTYSGHADYAQKLQGRVTMTRDTSTSTVYMELSSLRSEDTAVYYCARSYDYGDYLNFDYWGQGTLVTVSS
# VL: B4 VL with R24Q, V29I, T31N, W32Y, A34N, H92Y, T94I, Q96P, Q100G, E105D
# notes: Fab made in HEK293; also called R3G8-P1C11
# B7: Fab clone R3G10-P1B07 (Fab, V domains shown)
# VH: QVQLVQSGAEVKKPGASVKVSCKASGYTFTSYYMHWVRQAPGQGLEWMGIIHPGGGTTSYAQKFQGRVTMTRDTSTSTVYMELSSLRSEDTAVYYCARDKVYGDGFDPWGQGTLVTVSS
# VL: DIQMTQSPSSLSASVGDRVTITCRASQSISRWLAWYQQKPGKAPKLLIFDASRLQSGVPSRFSGSGSGTDFTLTISSLQPEDFATYYCQQAEAFPYTFGQGTKVEIK
# notes: Fab made in HEK293
# B8: scFv G5-P3G01 (scFv, V domains shown)
# VH: QVQLVQSGAEVKKPGASVKVSCKASGGTFSGYLVSWVRQAPGQGLEWMGWINPNSGGTNTAQKFQGRVTMTRDTSTSTVYMELSSLRSEDTAVYYCAREGYGMDVWGQGTTVTVSS
# VL: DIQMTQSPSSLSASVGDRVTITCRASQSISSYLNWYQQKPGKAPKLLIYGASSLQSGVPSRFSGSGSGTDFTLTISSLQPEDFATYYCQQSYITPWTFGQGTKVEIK
# Assays:
# [1] = target: HLA-B*35:01_… (HLA-PEPTIDE target G5), soluble (human, enzymatically biotinylated (BirA)); assay: scFv PPE ELISA
# [2] = target: HLA-A*01:01_… (HLA-PEPTIDE target G10), soluble (human, enzymatically biotinylated (BirA)); assay: BLI (Octet), biotinylated pHLA on streptavidin sensor, Fab in solution, 1:1 model
# [3] = target: HLA-A*02:01_… (HLA-PEPTIDE target G8), soluble (human, enzymatically biotinylated (BirA) for screening and BLI); assay: as above
Binder,"fold selective binding, target pHLA vs minipool of negative control pHLAs [1]",Kd [3],koff [3],kon [3],also measured
B1,≥ 3 fold,–,–,–,–
B2,–,–,–,–,Kd [2]: 428 nM; koff [2]: 0.111 s⁻¹; kon [2]: 477000 M⁻¹ s⁻¹
B3,–,286 nM,0.0789 s⁻¹,545000 M⁻¹ s⁻¹,–
B4,–,17.7 nM,0.0013 s⁻¹,75000 M⁻¹ s⁻¹,–
B5,≥ 3 fold,–,–,–,–
B6,–,178 nM,0.0338 s⁻¹,190000 M⁻¹ s⁻¹,–
B7,–,–,–,–,Kd [2]: 37.5 nM; koff [2]: 0.00615 s⁻¹; kon [2]: 165000 M⁻¹ s⁻¹
B8,≥ 3 fold,–,–,–,–
